Results taken from PMC11147780.

What was measured:
[1] = target: 10E8-iGL3 antibody (fully germline-reverted 10E8); experiment: SPR; conditions: chain shown with the change;; read off a plot
[2] = target: 10E8 unmutated common ancestor antibody; experiment: SPR; conditions: chain shown with the change;; read off a plot

| Binder | Kd [1] [nM] | Kd [2] [nM] |
| --- | --- | --- |
| 10E8-GT9.2 epitope scaffold P41Q (protein) EVTQEDIIRALASPLIKDGMVDEDFAEYVIEREKRSPTGLQVKGVGVAIPHTLGEYVRDNAISVGILDKPVNFEGWYQSPDPVPVRVVFMLAGRTWDDIVNVLKWIKDVILDEEFMKRLLTMSDEEIYRQIYTRISKAPGMRGIHFKREYVRHLG | 8000 |  |
| MPER (scaffold without germline-targeting mutations) 10E8-GT10.2 (substitutions not printed in the panel; sequence in Extended Data Fig. 1h) (protein) NVTQEDIIRALASPLIKDGMVDEDFAEYVIARENRSPTGLQAKGVGVAIPHTLGDYVRDNAISVGILDKPVNFSGWYQSPDPVPVRVVFMLAGRTWDDIVIVLKWIKDVILDEEFMKRLLNMSDEEIYRQIYTRISKAPNLSGINFSREYVRHLN | 11000 | 38 |
| MPER (scaffold without germline-targeting mutations) 10E8-GT12 (substitutions not printed in the panel; sequence in Extended Data Fig. 1h) (protein) ETGNVTQEDIIRALASPLIKDGMVDEDFAEKVIENESRYPSGLQAKGVGFAIPHVLGDYVRDNAISVGILDKPVNFSEWYQSPDPVPVRVVFMLAIRTWDDITNVMNWIKDVVLDEEFMKRLLNMSDEEIYRQIYTRISKAPNLSGINFSREYVRHLNGS | 1800 | 180 |
| MPER (scaffold without germline-targeting mutations) 10E8-GT11 (substitutions not printed in the panel; sequence in Extended Data Fig. 1h) (protein) VTQEDIIRALASPLIKDGMVDEDFAEKVIEQESRYPTGLQAKGVGVAIPHTLGDYVRDNAISVGILDKPVNFEGWYQSPDPVPVRVVFMLAIRTWDDIVNVLNWIKDVILDEEFMKRLLTMSDEEIYRQIYTRISKAPQLSGIHFKREYVRHLG | 20000 | 1400 |
